Experiment: yeast display, Sf9 membrane polyspecificity reagent, FACS + sequencing; frameworks hold sequencing errors
Method in brief: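 A nanobody's polyreactivity label depends on the gate it was sorted from. Yeast display cells were stained with 10% biotinylated, detergent-solubilized Sf9 membrane reagent for 1 hour at 4 °C, enriched on streptavidin microbeads and sorted by FACS. The low and high (top ~1%) gates were set on anti-HA fluorescence for expression and streptavidin fluorescence for reagent binding.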

Sequence	polyreactivity (PSR sort gate)
QVQLVESGGGLVLAGGSLRLSCAASGSIFPLYAMGWYRQAPGKERELVAAITGTSSTYADSVKGRFTISRDNAKNTVYLQMNSLKPEDTAVYYCARVGWSWPRREKYNYWGQGTQVTVSS	high polyreactivity
QVQLVESGGGLVQGGGSLRLSCAASGRIFKYYAMGWYRQAPGKERELVADISWRGGSTYYADSVKGRFTISRDNAKNTVYLQMNCLKPEDTAVYYCNAVSPRPGFDWGQGTQVTVSS	high polyreactivity
QVQLVESGGGLVQAGGSLRLSCAASGFTFGYYVRGWYRQAPGKERELVAAITSGGSTYYADSVKGRFTISRDNAKNTVYLQMNSLKPEDTAVYYCAAFLGATYYYWGQGTQVTVSS	high polyreactivity
QVQLVESGGGLVQAGGSLRLSCAASGSTFSSYAMGWYRQAPGKERELVAAITSSGGSTYYADSVKGRFTISRDNAKNTVYLQMNSLKPEDTAVYYCAAADVIFWLYYYWGQGTQVTVSS	low polyreactivity
QEQLQESGSGLVQAGVSLRLSSAASGNIVQDWVMGWYRQAPGKERELVAAISPGAITYYADSVKGRFTISSDNAKNTVYLQTNRLNPEDTAVYYCAAYYIVEFLHGYWGQGTRVTVSS	low polyreactivity
QVQLVESGGGLVQAGGSLRLSCAASGRTFSRYAMGWYRQAPGKERELVAAITWSGGDTYYADSVKGRFTISRDNAKNTVYLQMNSLKPEDTAVYYCAAEWGTVGYIRYYAIWSEYDYWGQGTQVTVSS	low polyreactivity
QVQLVESGGGLVQAGGSLRLSCAASGSIFYGNTMGWYRQAPGKERELVAAISSGGSTKYADSVKGRFTISRDNAKNTVYLQMNSLKPEDTAVFYCAADLPRYWVTWMDYWGQGTQVTVSS	low polyreactivity
QVQLVESGGGLVQAGGSLRLSCAASGFTIVTYAMGWYRQAPGKERELVAAISKSGGTTYYADSVKGRFTISRDNAKNTVYLQMNSLKPEDTAVYYCNKRWYIARPVDRYRYYYWGQGTQVTVSS	high polyreactivity
QVQLVESGGGLVQAGGSLRLSCAASGRIFSRYTMGWYRQAPGKERELVAGITRGGGSTYYADSVKGRFTISRDNAKNTVYLQMNSLKPEDNAVYYCNAETSYAWWHYDYWGQGTQVTVSS	low polyreactivity
QVQLVESGGGLVQAGGRLRLSCAASGRIFLGYTMGSYRQAPWKERELVAAISKSGDSTYYADAVKGRFTFSSDNAKYTVFLQMNSLKPEDTAVYYCATRGYQSLRHQGTDDYWGQGTQVTVSS	high polyreactivity
QVQLVESGGGLVQAGGSLRLSCAASGSIFPYYVMGWYRQAPGKERYADSVKGRFTISRDNAKNTVYLQMNSLKPVDTAVYYSAAKVPEPPSLDESDYWGQGSQVTVSS	low polyreactivity
QVQHVESGGGLVQAGGSLRLSCAASGSIFYDYAMGWYRQAPGKERELVAAISKSDGSTYYADSVKGRFTISRDNAKNTVYLQMNSLKPEDTAVYYCNADLIYSYPPEYDYWGQGTQVTVSS	high polyreactivity
QVQLVESGGGLVQAGGSLRLSCAASGYTFCVYVMGWYRQAPGKERELVAAISGSTYYADSVKGRFTISRDNAKNTVYLQMNSLKPEDTAVYYCAAESYFFSPRTREKFDYWGQGTQVTVSS	low polyreactivity
QVQLVESGGGLVQAGGSLRLSCAASGRTSLGYAMGWYRQAPGKERELVAAISGGTTYYADSVKGRCTISRDNAKNPVYLQMNSLKPEDTAVYYCNAVYVWFSGAPRRYTKRYYWGQGTQVTVSS	high polyreactivity
HVQLVESGGGLVQAGGSLRLSCAASGRIFGPNAMGWYRQAPGKERELVAAISSGTGSRTYYADSVKGRFTISRDNAKKTVSLQMISLKPEDTAVYYCAVYSQQVYRWKYRFDYWGQGTQVTVSS	low polyreactivity
QVQLVESGGGLVQAGGSLRLSCAASGRTFYGNVMGWYRQAPGKERELVATISYSAGSTYYADSVKGRFTISRDNAKNTVYFQMNSLKPEDTAVYYCAAAGYVYHWAPRGSRYYYWGQGTQVTVSS	low polyreactivity
QVQLVESGGGLVQAGGRLRLSCAASGSIFGEYAMGWYRQAPGKERELVADITTGGNTNYADSVKGRFTISRDNAKNTVYLQMNSLKPEDTAVYYCNAYGNTYGYWWFGYWGQGTQVTVSS	low polyreactivity
QVQLVESGGGLVQAGGSLRISCAASGSIFYRNVMGWYRQAPGKERELVAAISSSGGRTHYADSVKGRFTISRDNAKNTVYLQMNSLKPEDTAVYYCTALYAPQEYGRRFPNDYWGQGTQVTVSS	high polyreactivity
QVQLEESGGGLVQAGGRLRLSCAASGSTFRNYAMGWNITAAGKERELVAAISTNGGRTFYADSVKGRFTISRDNAKNTVYLQMNSLKPEDNAVYYCAAEYGLYAPGYYYWGQGTQVTVSS	low polyreactivity
QVQLVESGRGLVQAGGSLRLSCAASGFIFAKYDMGCYSKAPVKERELVAAITRSGARTYYADSVKGRFTISRDNAKTTVYLQMNSLKPEDTAVYYCAIVTTVYTYDYWGQGTQVTVSS	high polyreactivity
QVQLVESGGGLVQAGGSVRLSCAASGISFQYNALGWYRQAPGTERELVAGITWSGTSTYFADSVKGRFTISRDNAKNTVYLQLNSMKPEDTAVYYCAAVRGYRGYDYWGQGTQGTVSS	high polyreactivity
QVQLVESGGGLVQAGGSLRLSCAASGLTFKENVMGWYRQAPGKERELVAAISTGASTYYADSVKGRCTISRDNAKNTVYLQMNSLKPEDTAVYYGAKRVTRWYGYWGQGTQVTVSS	high polyreactivity

Sequence	polyreactivity (PSR sort gate)
QVQLVESGGGLVQAGGSLRLSCAASGRIFRIYTMGWYREAPGKERELVAAISKSGGGTYYADSVKGRFTISRDNAKNTVYLQMNSLKPEDTAVYYCAAVSPNTAYDYWGQGTQVTVSS	high polyreactivity
QVQLVESGGGLVQAGGSLRLSCAASGRTFRVYAMGWYRQAPGKERELVAAINGRGGSTYYADSVKGRFTISRDNAKNTVYFQLNSLKPEDTAVYYCNALARTSWRMDYWGQGTQVTVSS	high polyreactivity
QVQLVESGGGLVQAGGSLRLSCAASGFTFGINAMGWYRQAPGKERELVAAINQSGDRTYYADSVKGRFTISRDNAKNTVYLQMNSLKPEDTAVYYCAALSTYRTWYGYWGQGTQVTVSS	high polyreactivity
QVQLVESGGGLVQAGGSLRLSCAASGLIFLDYAMGWNRQAPWKERELVAAITGRGGSTYYADSVKGRFTISRDNAKNTVYLQMNSLKPDDTAVYDCAAQYSYPTPYRTYEYDYWGQGTQVTVSS	high polyreactivity
QVQLVESGGGLVQAGGSLRLSCAASGSIFYSYAMGWYRQAPGKERELVARINYRGGSTYYADSVKGRFTISRDNAMNTVYLQMNSLKPEDTAVYYCAKRSYWSSNPRDYWGQGTQVTVSS	high polyreactivity
QVQLVESGGGLVQAGGSLRLSCAASGFNFRFYAMGWYRQAPGKERELVAVITWSGGRTYYADSVKGRFTISRDNAKNTVYLQMNSLKPEDTAVYYCAAKRGKTYQRFDYWGQGTQVTVSS	high polyreactivity
QVQLVESGGGLVQAGGSLRLSCAASGLTFSRYAMGWYRQAPGKERELVAAISSSGTRTYYADSVKGRFTISPDNPKNTVYLQMNSLKPEDTAVYYCNAYYAPRGYGYWGQGTQVTVSS	high polyreactivity
QVQLVESGGVLVQAGGSLRLSCAASGRTFAYNTMGWYRQAPGKEREVVAAITWSGGGTYYADSVKGRFTISRDNAKKTVYLQLNSLKPEDTAVYYCAVEYATPRARFRYYYWGQGTKVTVSS	high polyreactivity
QVQLQESGGGLVQAGGSLRLSCAASGTIFTARFMGWYRQAPGKERELVATITDGGNTNHADSVKGRFTISRDNAKNTVYLQMNSLKPEDAAVDYCAAGEVDNDTLLYWGQGSQVTVSS	low polyreactivity
QVQLVESGGGLVQAGGSLRLSCAASGSTFTSYAMGWYRQAPGKEREFVAAISQSSGSTYYADSVKWSFTISRDNAKNTVYLQMNSLKPEDTAVYYCAAKGRIRYGYGFDYWGQGTQVTVSS	high polyreactivity
QVQLVESGGGLVQAGGSLRLICAASGSTFYYYTRVWYRQAPGKERELVAAISYGGSSTYYADSVKGRFTISRDNAKNSVYLQMNSLKPEDTAVYYCAAEYDWSYWLSYDYWGQGTLVTVSS	low polyreactivity
QVQLVESGGGLVQAGGSLRLSCAASGLIFENNAMGWYRQAPGKERELVAAITKGGGSTYYADSVKGRFTISRDNAMNTVYLQMNSLKPEDTAVYYCAKVHPWHRYWQYWYDYWGQGTQVTVSS	low polyreactivity
QVQLVESGGGLVQAGGSLRLSCASSGSTFLRNAMGWYRHAPRKERELVAAFSLGSGSTYYADSVKGRFTISRDNAKNTVYLQMNSLKPEDTAVYYCAADVSRWLDYGYDYWGQGTQVTVSS	low polyreactivity
QVQLVESGGGLVQAGGSLRLSCAASGFTFYRNAMGWYRPAPGKERELVAAISGRGGGTYYADSVKGRFTISRDNAKNTVYLQMNSLKPEDTAVYYCNARLSWSAFGYWGQGTQVTVSS	high polyreactivity
QVQLVESGGGLVQAGGSLRLSCAASGIAYTYNAMGWYRQAPGKERELVASISRTGGSTRYADSVKGRFTISRDNAKNTFYLQMNSLKPEDTAVYYCAALSWRYVKYRFDYWGQGTQVTVSS	high polyreactivity
QVQLVESGGGLVQAGGSLRLSCAASGFTFSRNAMGWYRQAPGKERELVAAIDSGGSTDYADSVKGRFTISRDNAKNTVYLQMNSLKPEDTAVYYCAIASSATRYVQLRQDYDYWGQGTQVTVSS	low polyreactivity
QVQLVESGGGLVQAGGSLRLSCAASGSTFSGYDMGWYRQAPGKERELVAAISKSGGRTYYADSVKGRFTISRDNAKNTVYLQMKSLKPEDTAVYYCNTDSPYDTYYFLWWREDYYWGQGTQVTVSS	low polyreactivity
QDQLVEERGGLVQAGGSLRLSCAASGITFSTNAMGWYRQAPGKERELVAAITSVTSTYYADSVKGRFTISRDYAKNSVYLQMNSLKTEDTAVLYCAASLSRWPYFYEYNYWGQGTQVTVSS	low polyreactivity
QVQLVESGGGLVQAGGSLRLSCAASGITFEDYAMGWYRQAPGKERELVAAISWSGDITYYADSVKGRFTISRDNAKNTVYLQMNSLKPVDTAVYYCAADLSPYGYDYWGQGTQVTVSS	low polyreactivity
QVQLVESGGGLVQAGGSLRLSCAASGLIFADYTMGWYRQAPGKERELVAVITDGDSTYYADSVKGRFTISLDNAKNTVYLQMNTLKPEDTAVSYCAAESAGSFLDYYWAYGYWGQGTQVTVSS	low polyreactivity
QVQLVESGGGLVQAGGSLRLSCAASGSISYVNAMGWYRQAPGKERELVAAITGGGSTNYADSVKGRFTISRDNAKNTVYLQMNSLKPEDTAVYYCNSGDSTGEVIGDYWGQGTQVTVSS	low polyreactivity
